Reference: patent US7645449B2, “Sensitizing cells for apoptosis by selectively blocking cytokines” (priority 2003, dated 2010)

Assays:
[1] = tested on: MDA-MB-231 breast cancer cells; assay: MTS viability of MDA-MB-231 cells: chemotherapy- and anti-CD95-induced apoptosis; format: cell-based, human
Method: Human LNCAP prostate cancer cell line and human MDA-MB-231 breast cancer cell line were obtained from the American Type Culture Collection (ATCC, Manassas, Va.). Human RT112 bladder carcinoma cell line was kindly provided by Dr. M. Cippitelli (Regina Elena Cancer Institute, Rome, Italy). Cells were grown in RPMI 1640 (Life Technologies Inc., Grand Island, N.Y.) containing 10% heat inactivated fetal bovine serum supplemented with L-Glutamine 2 mM and 100 units/ml Penicillin-Streptomycin. Cells were kept in 5% CO2 atmosphere and routinely passaged when 80-85% confluent. […]
Cell viability was determined using the CellTiter 96® AQueous One Solution Cell Proliferation Assay (Promega, Madison, Wis.), according to the manufacturer's instructions. The assay is based on reduction of 3-(4,5-dimethylthiazol-2-yl)-5-(3-carboxymethoxyphenyl)-2-(4-sulfophenyl)-2H-tetrazolium, inner salt (MTS) to a colored formazan product that is measured spectrophotometrically. […] After 3 hours of incubation at 37° C. with the MTS reagent, the plates were read on a Multilabel Counter (Victor2, Wallac, Perkin-Ehmer Inc., Norwalk, Conn.) and dye absorbance was measured at 490 nm.
The percentage of apoptotic cells was derived from the percentage of viable cells that was directly calculated from the values of the MTS assay.

[2] = tested on: Bcl-xL and Bcl-2 in normal thyrocytes; assay: Immunoblot of Bcl-xL and Bcl-2 in normal thyrocytes cultured with cytokines; format: cell-based, human; conditions: after 48 hours of culture; IL-4 20 ng/ml, IL-10 40 ng/ml, IFN-γ 1000 IU/ml
Method: Thyroid cell purification and culture. Thyroid tissues from normal, PTC, FTC and UTC were digested for 2 hours with collagenase (1.5 mg/ml) (Gibco BRL, Grand Island, N.Y.) and hyaluronidase (20 μg/ml) (Sigma Chemical Co., St. Louis, Mo.) in DMEM. Thyrocytes were purified from the digested tissues by hematopoietic cell depletion with anti-CD45-coupled beads (Dynal, Wirral Merseyside, U.K.) and 12 hours of flask adherence, which allowed removal of other cells. After additional 12 hours of culture, thyroid cells were allowed to grow in monolayer for the immunocytochemistry or detached with trypsin+EDTA following exposure to cytokines or chemotherapeutic agents for functional and protein analyses. Thyrocytes were cultured in standard DMEM with 10% heat-inactivated FBS (Hyclone Laboratories, Logan, UK) in the presence or absence of human recombinant IL-4 (20 ng/ml), IL-10 (40 ng/ml) or IFN-γ (1000 IU/ml) (uroclone, Paignton, UK) and cisplatin (300 ng/ml), doxorubicin (5 μM) and taxol (5 μM) (Sigma) or TRAIL (Alexis, San Diego, USA). For the IL-4 and IL-10 neutralization, thyroid cancer cells were pretreated, for 48 hours, with anti-human IL-4 and IL-10 neutralizing antibodies (1 μg/ml) (R&D systems, MN, USA).
Protein isolation and Western Blotting. Cell pellets were resuspended in ice-cold NP-40 lysis buffer (50 mM Tris-HCl, pH 7.5, 150 mM NaCl, 1 mM EGTA, 1% NP-40) containing 1 mM PMSF, leupeptin (1 μg/ml), pepstatin (1 μg/ml) and aprotirni (1 μg/ml). Each lysate (30 μg) was fractioned on 12% SDS-polyacrylamide gels and blotted to nitrocellulose (Hybond, Amersham, Little Chalfont Buckinghamshire England, UK). Membrane was blocked for 1 h with nonfat dry milk in TBS containing 0.05% Tween 20 and successively incubated for 2 h with Abs specific to actin (Ab-1, mouse IgM, Calbiochem, Darmstadt, Germany), Bcl-2 (124, mouse IgG1, Upstate Biotechnology Inc.), Bcl-xL (H-5, mouse IgGl, Santa Cniz Biotechnology), IL-4 (3007.11, mouse IgG1, R&D Systems, Inc., Minneapolis, USA), IL-10 (23738.111, mouse IgG2b, R&D Systems), IFN-γ (25718.111, mouse IgG2a, R&D Systems). […]

B1: IL-4: human recombinant IL-4 (protein, UniProt P05112 25-153, looked up)
Interleukin-4: HKCDITLQEIIKTLNSLTEQKTLCTELTVTDIFAASKNTTEKETFCRAATVLRQFYSHHEKDTRCLGATAQQFHRHKQLIRFLKRLDRNLWGLAGLNSCPVKEANQSTLENFLERLKTIMREKYSKCSS
anti-CD95-induced apoptosis of MDA-MB-231 cells ([1]; cytokine pretreatment, 30 ng/ml anti-CD95 agonistic antibody): greatly reduced anti-CD95-induced apoptosis
drug-induced death of MDA-MB-231 cells ([1]; two days cytokine pretreatment (20 ng/ml), 300 ng/ml cisplatin or 5 μM daunorubicin): significantly protected from drug-induced death
Bcl-xL and Bcl-2 expression in normal thyrocytes [2]: upregulated
